Earlier results, collected in article PMC10825016.
Like-named read-outs stand apart in the source and are kept apart here.

Assays:
[1] = target: GrpE (Escherichia coli) (UniProt P09372)
[2] = target: GrpE (Escherichia coli) (UniProt P09372); remark: listed apart in the source

DnaK, sequence (P0A6Y8 2-638): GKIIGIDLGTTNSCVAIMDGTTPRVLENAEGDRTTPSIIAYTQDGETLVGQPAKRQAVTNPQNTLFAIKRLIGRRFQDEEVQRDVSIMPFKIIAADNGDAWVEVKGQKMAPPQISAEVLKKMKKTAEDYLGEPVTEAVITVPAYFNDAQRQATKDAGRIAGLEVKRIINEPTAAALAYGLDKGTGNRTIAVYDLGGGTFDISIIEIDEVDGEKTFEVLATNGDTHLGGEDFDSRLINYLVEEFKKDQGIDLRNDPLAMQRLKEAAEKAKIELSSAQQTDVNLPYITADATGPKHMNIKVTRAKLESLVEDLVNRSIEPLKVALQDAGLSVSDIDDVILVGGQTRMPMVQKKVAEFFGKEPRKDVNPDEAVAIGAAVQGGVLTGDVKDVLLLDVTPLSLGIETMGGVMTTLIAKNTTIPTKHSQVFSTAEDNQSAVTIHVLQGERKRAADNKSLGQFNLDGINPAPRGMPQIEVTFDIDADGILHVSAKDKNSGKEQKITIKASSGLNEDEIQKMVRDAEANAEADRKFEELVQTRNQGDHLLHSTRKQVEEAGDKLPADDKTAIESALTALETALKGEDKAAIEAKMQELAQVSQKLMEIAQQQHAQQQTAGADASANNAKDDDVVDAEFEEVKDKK
GrpE (Escherichia coli), sequence (P09372 whole entry): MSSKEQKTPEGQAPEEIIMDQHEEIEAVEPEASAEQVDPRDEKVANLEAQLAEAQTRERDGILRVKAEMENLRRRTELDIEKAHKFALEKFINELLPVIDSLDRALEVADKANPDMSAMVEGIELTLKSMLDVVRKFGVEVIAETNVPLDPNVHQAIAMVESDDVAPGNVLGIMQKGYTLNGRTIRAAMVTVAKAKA

DnaK (from UniProt P0A6Y8)
Kd [1]: 220 nM | Kd [2]: 11 nM
